How the values were obtained:
[1] = target: the molecule itself; experiment: SEC-MALS; SEC peaks analysed by DLS and SLS/MALS (Dawn Heleos II); purified Redβ proteins injected at 1 mg/ml; species after elution (dilution); without DNA
[2] = target: T1, wt Redβ, Strep-tag II tagged, purified (λ phage), P03698; experiment: ITC; Redα (150 μM) injected in 2 μl steps at 3 min intervals into the cell with Redβ (15 μM); 25 °C; 20 mM HEPES, 150 mM sodium chloride, 1 mM magnesium chloride, 0.5 mM TECP, pH 8; single-site binding model; conditions: remark: other sources report otherwise
T1 chain: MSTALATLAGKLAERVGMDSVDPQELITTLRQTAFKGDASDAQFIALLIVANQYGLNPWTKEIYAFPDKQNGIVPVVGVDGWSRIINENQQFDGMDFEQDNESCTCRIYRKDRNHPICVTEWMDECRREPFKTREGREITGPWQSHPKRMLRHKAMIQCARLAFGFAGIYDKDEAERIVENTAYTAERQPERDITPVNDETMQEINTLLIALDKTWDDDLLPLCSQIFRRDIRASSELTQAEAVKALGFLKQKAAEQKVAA

C3Redβ [3] = target: T2, C3Redβ (phage lambda, UniProt P03698 1-185); experiment: EMSA; 10 uM protein, 1 uM DNA; weak ssDNA binding (smear), non-complementary Cy5 oligo added; EMSA: 10 uM protein, 1 uM DNA, 20 mM Tris-HCl pH 7.5, 10 mM NaCl, 10 mM MgCl2, 37 C 30 min (+30 min after complementary oligo), 1.2-1.6% agarose, 2x TBE; conditions: protein: recombinant; tags: Strep-tag II; N-terminal per Methods, C-terminal per legends; single strand
T2 sequence: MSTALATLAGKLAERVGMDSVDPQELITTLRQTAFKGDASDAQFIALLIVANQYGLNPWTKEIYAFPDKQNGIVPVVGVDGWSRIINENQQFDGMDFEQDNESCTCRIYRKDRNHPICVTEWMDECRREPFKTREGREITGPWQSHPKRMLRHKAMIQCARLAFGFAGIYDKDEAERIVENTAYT

Redβ wt [4] = target: T3, Redβ wt (phage lambda, UniProt P03698 1-261); experiment: as above; conditions: protein: recombinant; single strand
T3 sequence: T1 chain

C3Redβ [5] = target: T2, C3Redβ; experiment: EMSA; sequential addition of strands; annealed nucleoprotein filament; EMSA: 10 uM protein, 1 uM DNA, 20 mM Tris-HCl pH 7.5, 10 mM NaCl, 10 mM MgCl2, 37 C 30 min (+30 min after complementary oligo), 1.2-1.6% agarose, 2x TBE; conditions: protein: recombinant; tags: Strep-tag II; N-terminal per Methods, C-terminal per legends; label: 5'-Cy3 on one strand, 5'-Cy5 on the other; 49 bp, 5' overhang 1 nt at each end as printed; annealed by the protein
Redβ wt [6] = target: T3, Redβ wt; experiment: as above; conditions: protein: recombinant; label: 5'-Cy3 on one strand, 5'-Cy5 on the other; 49 bp, 5' overhang 1 nt at each end as printed; annealed by the protein

B1: C3Redβ (1–185), Strep-tag II tagged, purified (domain or fragment, λ phage, UniProt P03698 1-185, looked up)
chain: T2 sequence
notes: Redβ of λ phage, residues 1-185 (C-terminal truncation C3); also called C3 deletion; C3-truncated Redβ; not shown: Strep-tag II, C-terminal, kept
In the case of B1, the “Dist (%) of Species 3 (1 subunit, monomer)” value (“Dist (%)” below) [1] is reported as 9.3%.

B2: Redα, Strep-tag II tagged, purified, P03697 1-226 (enzyme)
chain: MTPDIILQRTGIDVRAVEQGDDAWHKLRLGVITASEVHNVIAKPRSGKKWPDMKMSYFHTLLAEVCTGVAPEVNAKALAWGKQYENDARTLFEFTSGVNVTESPIIYRDESMRTACSPDGLCSDGNGLELKCPFTSRDFMKFRLGGFEAIKSAYMAQVQYSMWVTRKNAWYFANYDPRMKREGLHYVVIERDEKYMASFDEIVPEFIEKMDEALAEIGFVFGEQWR
For B2, the Kd [2] was 7.9 µM and the dH [2] was -9.84 kcal/mol.

B3: wt Redβ, Strep-tag II tagged, purified (natural protein, λ phage, UniProt P03698 1-261, looked up)
chain: T1 chain
notes: Redβ, single strand annealing protein of λ phage; the ORF cloned into pASK-IBA2; 261 residues by the printed limits of the truncations; also called wild type Redβ; not shown: Strep-tag II, C-terminal, kept
With B3 the “Dist (%)” value [1] was 68.2%.

B4: N1Redβ (20–261), Strep-tag II tagged, purified (domain or fragment, λ phage, UniProt P03698 20-261, looked up)
chain: SVDPQELITTLRQTAFKGDASDAQFIALLIVANQYGLNPWTKEIYAFPDKQNGIVPVVGVDGWSRIINENQQFDGMDFEQDNESCTCRIYRKDRNHPICVTEWMDECRREPFKTREGREITGPWQSHPKRMLRHKAMIQCARLAFGFAGIYDKDEAERIVENTAYTAERQPERDITPVNDETMQEINTLLIALDKTWDDDLLPLCSQIFRRDIRASSELTQAEAVKALGFLKQKAAEQKVAA
notes: Redβ of λ phage, residues 20-261 (N-terminal truncation N1); also called N1 deletion; not shown: Strep-tag II, C-terminal, kept
For B4, the “Dist (%)” value [1] was 7.4%.

CCATCCGCAAAAATCGAGCTATGCAGGGCGATTCTGCTCTAAGCCATCCG (ssDNA) [Cy3 50-mer ssDNA]: binds (C3Redβ [3]); binds (Redβ wt [4]).

B5: 50-mer complementary pair, sequentially added (dsDNA)
DNA 1: CCATCCGCAAAAATCGAGCTATGCAGGGCGATTCTGCTCTAAGCCATCCG
DNA 2: GCGGATGGCTTAGAGCAGAATCGCCCTGCATAGCTCGATTTTTGCGGATG
B5: binds (C3Redβ [5]); binds (Redβ wt [6]).
